The values below come from paper PMC8809517, “Cofactor-independent RNA editing by a synthetic S-type PPR protein”.

Common to all, as to test: high-throughput RNA pulldown from lysate on Ni-NTA beads; HRP: 50 mM Tris pH 8, 150 mM NaCl, 1 mM beta-mercaptoethanol, 50 ug/ml BSA, 3 ug/ml yeast RNA, 0.5% heparin; ITC and FP: Tris pH 8, 200 mM KCl, 5% glycerol; MST: 50 mM Tris pH 8, 200 mM NaCl, 1 mM DTT, BSA, heparin, 0.05% Tween 20
Common to all, as to conditions: tags: N-terminal His-eGFP

The target of series [1] is T1, GFP-9S library array, motif 4 ND N98P;D124T (synthetic construct, N98P;D124T).
T1 chain: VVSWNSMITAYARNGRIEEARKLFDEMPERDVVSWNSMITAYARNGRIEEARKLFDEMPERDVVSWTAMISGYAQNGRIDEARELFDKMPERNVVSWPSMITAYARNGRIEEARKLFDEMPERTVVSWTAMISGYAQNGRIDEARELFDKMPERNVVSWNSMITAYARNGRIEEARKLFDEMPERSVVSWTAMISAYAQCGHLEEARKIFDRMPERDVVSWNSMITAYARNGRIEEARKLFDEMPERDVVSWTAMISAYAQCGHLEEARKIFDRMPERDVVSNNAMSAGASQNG

For series [2], the target named is T2, GFP-9S library array, motif 4 ND N98D (synthetic construct, N98D).
T2 chain: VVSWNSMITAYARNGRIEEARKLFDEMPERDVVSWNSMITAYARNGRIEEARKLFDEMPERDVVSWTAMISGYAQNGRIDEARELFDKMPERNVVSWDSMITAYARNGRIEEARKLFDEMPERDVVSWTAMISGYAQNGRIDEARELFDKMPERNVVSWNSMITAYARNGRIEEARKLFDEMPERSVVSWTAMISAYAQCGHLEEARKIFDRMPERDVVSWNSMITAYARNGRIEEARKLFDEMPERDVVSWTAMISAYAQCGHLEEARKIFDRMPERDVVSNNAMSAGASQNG

Series [3] deals with T3, GFP-9S library array, motif 4 ND N98I;D124K (synthetic construct, N98I;D124K).
T3 chain: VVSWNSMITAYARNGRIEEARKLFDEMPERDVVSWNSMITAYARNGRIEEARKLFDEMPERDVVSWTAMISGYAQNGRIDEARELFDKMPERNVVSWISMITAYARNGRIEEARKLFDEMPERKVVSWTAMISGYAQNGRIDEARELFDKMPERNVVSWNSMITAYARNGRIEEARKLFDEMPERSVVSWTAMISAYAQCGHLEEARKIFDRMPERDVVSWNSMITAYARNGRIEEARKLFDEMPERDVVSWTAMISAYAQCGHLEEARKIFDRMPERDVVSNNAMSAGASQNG

The target in series [4] is T4, GFP-9S library array, motif 4 ND N98T;D124E (synthetic construct, N98T;D124E).
T4 chain: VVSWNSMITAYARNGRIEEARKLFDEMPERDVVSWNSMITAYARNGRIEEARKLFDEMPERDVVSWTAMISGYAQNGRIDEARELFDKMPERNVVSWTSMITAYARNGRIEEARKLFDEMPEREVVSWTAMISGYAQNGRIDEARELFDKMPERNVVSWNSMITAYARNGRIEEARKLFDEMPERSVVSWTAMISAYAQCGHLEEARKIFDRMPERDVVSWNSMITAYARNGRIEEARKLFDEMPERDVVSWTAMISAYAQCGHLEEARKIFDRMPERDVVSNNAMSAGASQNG

Series [5] deals with T5, GFP-9S library array, motif 4 ND N98E;D124L (synthetic construct, N98E;D124L).
T5 chain: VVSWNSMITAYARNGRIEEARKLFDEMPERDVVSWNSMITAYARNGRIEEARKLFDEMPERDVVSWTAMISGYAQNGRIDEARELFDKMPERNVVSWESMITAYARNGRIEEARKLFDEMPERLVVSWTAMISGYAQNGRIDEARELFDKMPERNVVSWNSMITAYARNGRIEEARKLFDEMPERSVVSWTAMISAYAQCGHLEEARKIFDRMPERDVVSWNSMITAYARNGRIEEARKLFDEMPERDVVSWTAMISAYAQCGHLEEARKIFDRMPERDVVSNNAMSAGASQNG

The Kd is the concentration at which binding is half-saturated. A high value points to lower affinity. Consider AUUAUACGUGA (ssRNA) [IR-rpoA-U], for which the Kd in series [1] (label: 5' IRDye 800CW) was found to be 179 nM; in series [2] (label: 5' IRDye 800CW) it was 315 nM; in series [3] (label: 5' IRDye 800CW) it was 183 nM; in series [4] (label: 5' IRDye 800CW) it was 134 nM; in series [5] (label: 5' IRDye 800CW) it was 196 nM.
As for AUUACACGUGA (ssRNA) [Cy5-rpoA], the Kd was found to be 176 nM in series [1] (label: 5' Cy5); 395 nM in series [2] (label: 5' Cy5); 131 nM in series [3] (label: 5' Cy5); 258 nM in series [4] (label: 5' Cy5); 63.1 nM in series [5] (label: 5' Cy5).
As for AUUAAACGUGA (ssRNA) [IR-rpoA-A], the Kd in series [1] (label: 5' IRDye 800CW) was 405 nM; in series [2] (label: 5' IRDye 800CW), 531 nM; in series [3] (label: 5' IRDye 800CW), 197 nM; in series [4] (label: 5' IRDye 800CW) it was 185 nM; in series [5] (label: 5' IRDye 800CW), 147 nM.
Take AUUAGACGUGA (ssRNA) [Cy5-rpoA-G]: the Kd in series [1] (label: 5' Cy5) was 177 nM; in series [2] (label: 5' Cy5) it was 55.1 nM; in series [3] (label: 5' Cy5), 121 nM; in series [4] (label: 5' Cy5), 13.2 nM; in series [5] (label: 5' Cy5), 69 nM.
